# From patent US20240279345A1, “ALPHA 5 BETA 1 INTEGRIN BINDING AGENTS AND USES THEREOF” (PASITHEA THERAPEUTICS CORP., priority 2021, published 2024)
# Target: T1, recombinant human α5β1 integrin (rh-α5β1) (Homo sapiens, UniProt P05556+P08648)
# T1 construct: purchased R&D Systems 3230-A5
# Assay: Plate-based ELISA reactivity to rh-α5β1
# Assay type: binding
# Settings: selected for further characterization among α5 specific hybridomas (28 selected)
# Experimental: The 249 positive hybridoma supernatants selected as described in Example 1 were screened for reactivity to rh-α5β1 in a plate-based ELISA. Immulon4 HBX ELISA 96-well plates (Thermo Fisher Scientific, Waltham, MA, cat. no. 3855) were coated with rh-α5β1 (R&D Systems, Minneapolis, MN 55413, cat. no. 3230-A5), at 1 μg/mL in PBS supplemented with 0.5 mM MgCl2, MnCl2 and CaCl2 and incubated overnight at 4° C. Plates were washed 3 times with Wash Buffer (1× Tris Buffered Saline containing 0.05% Tween20), blocked with 2% BSA in 1×TBS (made from 10× Thermo Scientific Blocker BSA (10×) in TBS; Thermo Fisher Scientific, Waltham, MA, cat. no. 37520) for 2 hours at room temperature (RT) then incubated with hybridoma supernatants diluted 1:10 with Standard Diluent (2% BSA, 1×TBS, 0.05% Tween20). Following a 1 hour incubation at RT, wells were washed 3 times, incubated with biotinylated goat anti-mouse secondary antibody at 1:8000 dilution (Invitrogen, Carlsbad, CA, cat. no. 62-6540) for 1 hour, washed 3 times, then incubated for 30 minutes with poly-HRP Streptavidin (Thermo Fisher Scientific, Waltham, MA, cat. no. N200), washed 4 times, incubated with TMB (Thermo Fisher Scientific, Waltham, MA, cat. no. N301) for 5-10 minutes, followed by addition of ELISA Stop Solution (Invitrogen, Carlsbad, CA, cat. no. SS04). Absorbance 450 nm was measured.
# T1 sequence (P08648 42-894 limits assumed): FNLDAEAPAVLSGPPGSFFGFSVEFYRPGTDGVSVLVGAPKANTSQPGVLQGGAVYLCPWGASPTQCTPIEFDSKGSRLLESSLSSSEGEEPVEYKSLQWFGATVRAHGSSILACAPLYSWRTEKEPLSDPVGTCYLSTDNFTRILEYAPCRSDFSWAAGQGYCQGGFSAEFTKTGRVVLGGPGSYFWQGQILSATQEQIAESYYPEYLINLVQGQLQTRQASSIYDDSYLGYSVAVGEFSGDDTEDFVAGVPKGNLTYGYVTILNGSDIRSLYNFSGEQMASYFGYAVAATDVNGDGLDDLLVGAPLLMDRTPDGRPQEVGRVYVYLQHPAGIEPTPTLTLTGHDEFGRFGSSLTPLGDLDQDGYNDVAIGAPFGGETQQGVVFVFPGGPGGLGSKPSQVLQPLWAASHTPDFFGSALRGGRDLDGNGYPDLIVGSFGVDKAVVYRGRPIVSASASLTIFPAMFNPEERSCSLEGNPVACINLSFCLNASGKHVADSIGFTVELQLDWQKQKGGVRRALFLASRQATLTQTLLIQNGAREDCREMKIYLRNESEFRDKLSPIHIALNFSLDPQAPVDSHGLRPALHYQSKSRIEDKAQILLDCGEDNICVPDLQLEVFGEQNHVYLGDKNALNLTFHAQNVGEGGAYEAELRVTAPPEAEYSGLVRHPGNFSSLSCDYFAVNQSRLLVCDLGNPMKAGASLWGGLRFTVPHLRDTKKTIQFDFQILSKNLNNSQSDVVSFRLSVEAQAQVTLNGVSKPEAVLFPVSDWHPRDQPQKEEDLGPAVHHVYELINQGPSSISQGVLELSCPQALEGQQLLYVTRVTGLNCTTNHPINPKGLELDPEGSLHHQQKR
# T1 sequence (P08648 895-995 limits assumed): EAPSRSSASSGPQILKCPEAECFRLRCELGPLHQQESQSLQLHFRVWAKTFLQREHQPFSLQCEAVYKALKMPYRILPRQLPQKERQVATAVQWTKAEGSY
# T1 sequence (P05556 21-728 limits assumed): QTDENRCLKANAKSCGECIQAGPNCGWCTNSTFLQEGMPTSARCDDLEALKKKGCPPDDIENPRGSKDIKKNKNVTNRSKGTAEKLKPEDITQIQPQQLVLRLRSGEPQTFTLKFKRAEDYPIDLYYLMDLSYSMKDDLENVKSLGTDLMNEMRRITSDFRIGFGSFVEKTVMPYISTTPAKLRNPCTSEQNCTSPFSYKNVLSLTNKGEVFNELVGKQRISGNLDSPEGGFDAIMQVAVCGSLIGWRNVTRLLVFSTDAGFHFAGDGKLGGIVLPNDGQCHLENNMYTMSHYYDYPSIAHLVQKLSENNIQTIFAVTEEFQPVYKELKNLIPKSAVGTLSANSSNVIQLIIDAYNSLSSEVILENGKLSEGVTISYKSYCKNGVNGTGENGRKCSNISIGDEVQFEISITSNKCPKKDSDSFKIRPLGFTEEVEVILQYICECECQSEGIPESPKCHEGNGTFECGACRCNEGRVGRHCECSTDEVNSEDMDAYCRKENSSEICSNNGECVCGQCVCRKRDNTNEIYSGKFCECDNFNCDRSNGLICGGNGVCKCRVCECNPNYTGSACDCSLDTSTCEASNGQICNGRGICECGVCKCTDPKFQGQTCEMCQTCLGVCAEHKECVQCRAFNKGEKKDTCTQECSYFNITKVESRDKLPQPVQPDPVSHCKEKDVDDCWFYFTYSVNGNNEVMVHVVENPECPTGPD
molecule,measurement,value
"A2-7A05: anti-α5β1 antibody, VH SEQ ID NO:77, VL SEQ ID NO:78; tested as mouse hybridoma antibody and as human IgG4 chimera (antibody, V domains shown, A2-7A05 VH Sequence; A2-7A05 VL Sequence, tested as mouse hybridoma antibody and as human IgG4 chimera) VH: QVQLQQPGAELVKPGASVKLSCKASGYTFTIYWINWVKQRPGQGLEWIGKIYPGSISTDYNEKFKSKATLTVDTSSSTAYMQLSSLTSDDSAVYYCAITGTGGLAYWGQGTLVTVSA VL: ENVLTQSPAIMSASLGEKVTMTCRASSSVNYMYWYQQKSDASPKLWIYFTSSLAPGVPGRFSGSGSGNSYSLTISTMEGEDAATYYCQQFTTSPFTFGSGTKLEIK",Selected Human α5 Specific,Yes
